Measurements reported in patent US10253082B2, “Long-acting insulin and use thereof” (HANMI PHARM. CO., LTD., priority 2014, dated 2019).

Target: Insulin receptors (Homo sapiens, UniProt P06213)
Experiment: Insulin receptor binding affinity by surface plasmon resonance (BIACORE 3000)
Conditions: for ka / kd: SPR, immobilized insulin receptor, 1:1 Langmuir binding with baseline drift, Test 1-5 runs; for receptor binding affinity (KD) compared to human insulin: native human insulin of the same test = 100%
Protocol: Then, the insulin receptor binding affinity of each substance was examined. The binding affinity of each substance was calculated using BIAevaluation software. At this time, the model used was 1:1 Langmuir binding with baseline drift.

Substance: Insulin analog (No. 9): insulin analog, modified sequence A^14Y->N; protein SEQ ID NO: 36
- ka: 1.85 1/Ms, ×10^5
- kd: 11.9 1/s, ×10^−3
- receptor binding affinity (KD) compared to human insulin: (78.8%)

Substance: Insulin analog (No. 8): insulin analog, modified sequence A^14Y->E; protein SEQ ID NO: 34
- ka: 1.78 1/Ms, ×10^5
- kd: 12.9 1/s, ×10^−3
- receptor binding affinity (KD) compared to human insulin: (57.1%)

Substance: Insulin analog (No. 7): insulin analog, modified sequence B^25F->A; protein SEQ ID NO: 32
- ka: 0.14 1/Ms, ×10^5
- kd: 8.34 1/s, ×10^−3
- receptor binding affinity (KD) compared to human insulin: (9.9%)

Substance: Insulin analog (No. 6): insulin analog, modified sequence B^24F->A; protein SEQ ID NO: 30
- ka: 0.28 1/Ms, ×10^5
- kd: 6.60 1/s, ×10^−3
- receptor binding affinity (KD) compared to human insulin: (14.8%)
